# According to paper PMC6932757, “Inhibition of FLT1 ameliorates muscular dystrophy phenotype by increased vasculature in a mouse model of Duchenne muscular dystrophy” (PLoS Genetics, 2019):
# B1: recombinant mouse PlGF2 (ligand, UniProt P49764 19-158, looked up)
# chain: VHSQGALSAGNNSTEVEVVPFNEVWGRSYCRPMEKLVYILDEYPDEVSHIFSPSCVLLSRCSGCCGDEGLHCVPIKTANITMQILKIPPNRDPHFYVEMTFSQDVLCECRPILETTKAERRKTKGKRKRSRNSQTEEPHP
# notes: Placenta growth factor 2 (PlGF2), mouse, recombinant; probably the mature secreted protein (surmised); source: bought: R&D Systems (465-PL-010/CF)
# Biological target: T1, mouse FLT1-FC chimeric protein with His-tag (mouse, UniProt P35969 23-759)
# T1 construct: FLT1 (VEGF receptor-1, VEGFR1), mouse, soluble form fused to FC; also called chimeric FLT1-FC; mouse soluble FLT1-FC chimeric protein; source: bought: R&D Systems (471-F1-100)
# T1 sequence (looked up): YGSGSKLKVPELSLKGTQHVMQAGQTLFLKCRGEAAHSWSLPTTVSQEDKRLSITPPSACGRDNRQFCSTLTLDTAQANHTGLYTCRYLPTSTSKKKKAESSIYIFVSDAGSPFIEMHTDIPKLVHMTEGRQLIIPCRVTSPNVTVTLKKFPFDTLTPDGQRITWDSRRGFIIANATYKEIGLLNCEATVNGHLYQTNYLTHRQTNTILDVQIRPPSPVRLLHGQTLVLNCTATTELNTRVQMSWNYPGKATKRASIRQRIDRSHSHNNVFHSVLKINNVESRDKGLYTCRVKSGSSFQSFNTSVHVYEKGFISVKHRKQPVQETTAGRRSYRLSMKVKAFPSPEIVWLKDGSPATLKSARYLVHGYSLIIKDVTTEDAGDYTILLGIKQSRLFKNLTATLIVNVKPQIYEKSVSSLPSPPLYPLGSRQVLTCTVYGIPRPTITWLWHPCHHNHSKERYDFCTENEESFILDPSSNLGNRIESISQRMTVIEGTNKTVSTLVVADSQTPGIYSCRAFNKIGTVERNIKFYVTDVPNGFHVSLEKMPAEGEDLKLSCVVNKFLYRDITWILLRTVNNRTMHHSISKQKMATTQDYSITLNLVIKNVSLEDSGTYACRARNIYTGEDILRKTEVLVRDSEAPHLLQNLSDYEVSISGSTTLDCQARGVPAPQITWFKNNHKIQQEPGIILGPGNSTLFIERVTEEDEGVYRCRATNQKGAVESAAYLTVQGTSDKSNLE
# Assay: ELISA; mouse FLT1-FC (His-tag) coated on 96 well plates, blocked with 5% BSA; anti-FLT1 antibodies incubated, then mouse PlGF2; detected with biotin-conjugated anti-PlGF2 antibody and Streptavidin-HRP, TMB, 450 nm
# Settings: both partners purified
binder,measurement,value
B1,binding result,binds
